# Results from US20220089694A1 (US Dept. of Health and Human Services, published 2022).
# T1: EBOV GP on pseudotyped lentiviral particles (Ebola virus (EBOV), UniProt Q05320 33-676)
# T1 sequence: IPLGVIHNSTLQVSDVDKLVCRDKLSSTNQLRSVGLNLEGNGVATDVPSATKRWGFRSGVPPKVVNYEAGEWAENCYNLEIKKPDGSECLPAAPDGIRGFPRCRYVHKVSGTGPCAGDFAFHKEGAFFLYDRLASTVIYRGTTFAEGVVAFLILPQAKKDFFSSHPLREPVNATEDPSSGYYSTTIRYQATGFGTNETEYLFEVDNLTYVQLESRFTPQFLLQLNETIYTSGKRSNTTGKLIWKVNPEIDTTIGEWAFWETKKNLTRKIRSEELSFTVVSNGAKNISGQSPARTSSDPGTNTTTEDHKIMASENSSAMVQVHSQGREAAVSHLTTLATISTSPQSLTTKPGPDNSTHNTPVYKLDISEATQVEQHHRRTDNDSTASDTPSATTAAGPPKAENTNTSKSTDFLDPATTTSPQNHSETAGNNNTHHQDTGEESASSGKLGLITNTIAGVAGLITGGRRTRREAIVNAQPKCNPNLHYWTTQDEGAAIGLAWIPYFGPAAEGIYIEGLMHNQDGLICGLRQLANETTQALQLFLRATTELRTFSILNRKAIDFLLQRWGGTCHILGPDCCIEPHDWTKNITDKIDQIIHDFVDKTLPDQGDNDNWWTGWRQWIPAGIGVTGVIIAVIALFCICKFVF
# B1: EboV.YD.01 IgG (antibody, V domains shown)
# VH: QVRLVQSGGGLVKPGGSLRLSCAASGFTFSTFAMHWVRQAPGKGLEWVSSISRSSGSINYADSVKGRFTISRDNAKNSLFLQMNSLRADDTAVYYCARENTIPFGGGVVLERASHFDYWGQGTTVTVSS
# VL: DIRVTQSPSSLSASVGDRVTIICRASQSSSTFLNWYQQKPGKAPNLLIYAASSLQSGVPSRFSGSGSGTDFTLTISSLQPEDFATYYCQQSYSAPYTFGQGTKVDIK
# B2: EboV.YD.02 IgG (antibody, V domains shown)
# VH: QVQLVQSGAEVKKPGTSVKISCKASGYSFTSKYMHWVRQAPGQGLEWMGKINPSGGRRDYAQKFQGRVTMTRDTSTSTVYMELSSLRSGDTAVYYCARDMHGVLSWYHALDYWGQGTLVTVSS
# VL: DIRVTQSPSSLSTSVGDRVTITCRASQDIGRYLNWYQQKPGKAPKLLIYGASSLQSGVPSRFSGSGSGTDFTLTISSLQPEDFATYYCQQGYRIPITFGQGTRLEIK
# B3: EboV.YD.03 IgG (antibody, V domains shown)
# VH: QVQLQESGPGLVKPSETLSLTCTVSGDSLSSSYWSWIRQSAGKGLEYIGRTYVSGNTKYNPSLKSRVTMSVDTSKNQFSLRLTSVTAADTAVYYCARIRVLPAAMLRGDYWYFDLWGRGTLVTVSS
# VL: SYELTQLPSVSVSPGQTASITCSGDKVENKYVCWYQQKSGQSPVLVIYEDSKRPSGIPERFSGSNSGNTATLTISGTQTMDEADYFCQAWDSSIGVFGTGTKLTVL
# B4: EboV.YD.04 IgG (antibody, V domains shown)
# VH: QVQLVESGGGLVKPGGSLRLSCAASGFMFSNAWMNWVRQAPGKGLEWVGRIKSRSDGGTTDYAAPVKGRFTFSREDSKNMLYLQMNSLKREDTAVYYCTTRVSIFRGPIEDVWGQGTTVTVSS
# VL: QPVLTQPPSVSGAPGQRVTISCAGSSSNIGAGYDVYWYQQLPGTAPKLLIYGNNNRPSGVPDRFSGSKSGTSASLAITGLQAEDEAEYYCQSYDSSLRDSYVFGSGTKVTVL
# Biological target: T1, EBOV GP on pseudotyped lentiviral …
# Test: cell-based or functional assay
row,Binder,"IC50, neutralization activity in a pseudotyped virus entry assay [µg/mL]"
1,B1,7.1
2,B2,1.6
3,B3,1.1
4,B4,0.5

# Biological target: T1, EBOV GP on pseudotyped lentiviral …
# Test: cell-based or functional assay
# Remark: another data set of the same source
row,Binder,% EBOV Neut. (10 µg/mL) [%]
1,B1,55.1
2,B2,70.8
3,B3,97.3
4,B4,98.8
